Experimental data published in paper PMC4109836, “Analysis of the co-operative interaction between the allosterically regulated proteins GK and GKRP using tryptophan fluorescence” (Biochemical Journal, 2014).
Read-outs that look alike come from different tables or passages of the source. Values belong to the molecule of their own block, whether it stands above or below them.

Columns and labels:
[1] = biological target: T1, hGKRP (0.3 μM)–GK-W99R/W167F/W257F (1 μM) complex, GKRP-WT (Homo sapiens, UniProt P35557+Q14397, W167F/W257F/W99R); experiment: Ligand binding by / disassembly of GKRP-WT–GK-W99R/W167F/W257F complex by TF of hGKRP
T1 construct: FLAG; GST (cleaved yes); made in house; host or cells: Escherichia coli
T1 sequence (Q14397 1-625): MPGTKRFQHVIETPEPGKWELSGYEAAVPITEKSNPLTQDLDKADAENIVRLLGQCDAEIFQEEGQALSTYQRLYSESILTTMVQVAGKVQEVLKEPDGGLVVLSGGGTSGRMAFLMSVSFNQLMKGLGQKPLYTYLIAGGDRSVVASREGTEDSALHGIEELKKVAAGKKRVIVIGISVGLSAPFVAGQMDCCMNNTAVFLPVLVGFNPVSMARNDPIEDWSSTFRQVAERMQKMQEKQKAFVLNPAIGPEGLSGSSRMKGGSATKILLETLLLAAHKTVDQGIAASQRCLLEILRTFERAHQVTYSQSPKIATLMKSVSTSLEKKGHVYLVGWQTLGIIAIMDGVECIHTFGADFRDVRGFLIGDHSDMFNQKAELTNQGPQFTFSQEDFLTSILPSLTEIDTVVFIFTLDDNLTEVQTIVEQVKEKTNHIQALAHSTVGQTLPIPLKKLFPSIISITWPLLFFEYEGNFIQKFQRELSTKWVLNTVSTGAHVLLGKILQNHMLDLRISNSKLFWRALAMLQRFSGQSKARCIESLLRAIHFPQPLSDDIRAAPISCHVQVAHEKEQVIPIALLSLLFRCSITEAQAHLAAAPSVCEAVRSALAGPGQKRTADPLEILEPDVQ
T1 sequence (P35557 1-465 W99R/W167F/W257F): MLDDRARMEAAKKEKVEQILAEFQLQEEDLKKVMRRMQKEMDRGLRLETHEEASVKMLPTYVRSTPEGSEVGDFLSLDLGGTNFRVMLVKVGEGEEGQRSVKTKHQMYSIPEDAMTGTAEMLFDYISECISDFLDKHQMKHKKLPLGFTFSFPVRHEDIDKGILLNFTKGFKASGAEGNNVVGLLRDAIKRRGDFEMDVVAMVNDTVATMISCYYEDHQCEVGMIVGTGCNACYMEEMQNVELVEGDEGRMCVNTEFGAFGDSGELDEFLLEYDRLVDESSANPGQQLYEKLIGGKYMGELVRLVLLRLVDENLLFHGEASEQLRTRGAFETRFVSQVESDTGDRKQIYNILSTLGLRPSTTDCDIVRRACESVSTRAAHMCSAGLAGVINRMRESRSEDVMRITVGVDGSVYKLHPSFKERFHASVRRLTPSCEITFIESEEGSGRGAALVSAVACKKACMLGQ
Protocol: (§1) Spectra were measured with a Fluorolog-3-21 Jobin-Yvon Spex Instrument SA equipped with a 450 W Xenon lamp for excitation and a cooled R2658P Hamamatsu photomultiplier tube for detection. For all measurements, 90° geometry was employed and 295 nm excitation wavelengths were used to observe fluorescence emission in the 300–500 nm range. For TF, spectra slit width was set to provide a bandpath of 3 nm for excitation and 3 nm for emission. Spectra were corrected for instrumental response using Spex instrument software. A thermostatically controlled cell holder maintained sample temperature at 20°C. A thermocoupler was used to measure sample temperature. The buffer used contained 20 mM phosphate, 50 mM KCl, 1 mM EDTA and 1 mM DTT (pH 7.2).
(§2) Fluorescence data were obtained via the stepwise addition of the appropriate amount of non-fluorescent GK-W99R/W167F/W257F to GKRP in a fluorescence cuvette. […] The change in GKRP protein fluorescence during titration was also measured using time-dependent scans. A manual procedure was used such that a typical titration with 10–12 additions required 20–25 min to perform. The same buffer as described above was routinely used unless stated otherwise. The bandpath was 0.5 nm at 295 nm for excitation and 12 nm at 340 nm for emission. […] For some graphical presentations the linear form of the Hill equation was used: log[F/(Fsat−F)]=H log x−H log KD [46].

GKRP-P446L = biological target: T2, GKRP-P446L (Homo sapiens, UniProt P35557+Q14397, P446L/W167F/W257F/W99R); experiment: Titration of GKRP-P446L with GK-W99R/W167F/W257F (GK–GKRP complex assembly) by TF; format: binding; design: ΔF: scale not given here; conditions: for Kd: read-out: S0.5 of GK
T2 construct: FLAG; GST (cleaved yes); made in house; host or cells: Escherichia coli
T2 sequence (Q14397 1-625 P446L): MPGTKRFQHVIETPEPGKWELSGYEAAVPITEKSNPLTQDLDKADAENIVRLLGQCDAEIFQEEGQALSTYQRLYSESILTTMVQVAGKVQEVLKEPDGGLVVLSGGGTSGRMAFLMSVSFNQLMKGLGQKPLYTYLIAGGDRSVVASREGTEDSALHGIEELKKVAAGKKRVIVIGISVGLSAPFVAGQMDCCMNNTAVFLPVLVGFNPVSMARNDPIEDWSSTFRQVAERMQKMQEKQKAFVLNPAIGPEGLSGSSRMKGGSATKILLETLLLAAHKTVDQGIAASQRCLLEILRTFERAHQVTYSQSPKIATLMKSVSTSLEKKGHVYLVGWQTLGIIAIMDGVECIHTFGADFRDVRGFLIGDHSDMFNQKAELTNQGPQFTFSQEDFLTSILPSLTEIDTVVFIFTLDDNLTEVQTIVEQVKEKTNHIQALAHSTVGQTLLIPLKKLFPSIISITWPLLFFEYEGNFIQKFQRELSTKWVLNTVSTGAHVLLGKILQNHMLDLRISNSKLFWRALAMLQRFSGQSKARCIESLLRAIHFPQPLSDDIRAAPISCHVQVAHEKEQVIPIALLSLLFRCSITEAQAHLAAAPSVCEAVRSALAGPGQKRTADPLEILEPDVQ
T2 sequence (P35557 1-465 W99R/W167F/W257F): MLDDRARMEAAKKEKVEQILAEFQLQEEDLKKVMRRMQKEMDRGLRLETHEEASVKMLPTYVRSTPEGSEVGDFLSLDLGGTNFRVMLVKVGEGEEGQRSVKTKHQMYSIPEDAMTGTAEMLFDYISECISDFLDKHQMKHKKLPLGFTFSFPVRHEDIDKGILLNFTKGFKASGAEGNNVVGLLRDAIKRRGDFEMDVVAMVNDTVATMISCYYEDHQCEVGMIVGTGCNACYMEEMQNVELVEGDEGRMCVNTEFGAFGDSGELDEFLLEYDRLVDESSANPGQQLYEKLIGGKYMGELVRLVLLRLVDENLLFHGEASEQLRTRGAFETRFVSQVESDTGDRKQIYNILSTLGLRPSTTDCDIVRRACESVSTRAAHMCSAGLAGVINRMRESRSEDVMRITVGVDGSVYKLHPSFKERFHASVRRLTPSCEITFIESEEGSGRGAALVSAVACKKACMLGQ
Protocol: as §1, §2

[2] = addition of 6.6 mM D-glucose, 0.3 μM GKRP and 1 μM GK, pH 7.2, mono ExpDecay fit
[3] = ligand titration of 3:1 GK–GKRP-WT complex, 20°C
[4] = GK titration with 20 μM GKA, 20°C
[5] = GK titration with 500 μM F1P, 20°C
[6] = GK titration with 500 μM F6P, sigmoidal fit, 20°C
[7] = GK titration with 500 μM F6P, simple saturation fit (H = 1)
[8] = GK titration with 100 mM D-glucose and 20 μM GKA, 20°C
[9] = GK titration with 100 mM D-glucose and 500 μM F1P, 20°C
[10] = GK titration with 100 mM D-glucose and 500 μM F6P, 20°C
[11] = GK titration with 100 mM D-glucose, 20°C
[12] = GK titration, no further agent, sigmoidal fit, 20°C
[13] = GK titration, no further agent, simple saturation fit (H = 1)

- A (amplitude) of time-dependent decrease in GKRP-WT TF [1, 2]: 0.04
- τ of time-dependent decrease in GKRP-WT TF [1, 2]: 11 s
- H [1, 3]: 1
- ΔF (relative fluorescence change at 340 nm) [1, 3]: −0.065
- Kd ([1]; ligand titration of 3:1 GK–GKRP-WT complex, 20°C, read-out: Kd (apparent)): 12000 µM
Molecule: OC[C@H]1OC(O)[C@H](O)[C@@H](O)[C@@H]1O (stereo partly drawn) [D-Glucose, D-glucose]

- H (GKRP-P446L; [4]): 2.17
- ΔF (GKRP-P446L; [4]): 0.43
- Kd (GKRP-P446L; [4]): 2.59 µM
- H (GKRP-P446L; [5]): 2.84
- ΔF (GKRP-P446L; [5]): 0.41
- Kd (GKRP-P446L; [5]): 2.95 µM
- H (GKRP-P446L; [6]): 1.31
- ΔF (GKRP-P446L; [6]): 0.44
- Kd (GKRP-P446L; [6]): 1.66 µM
- H (GKRP-P446L; GK titration with 500 μM F6P, simple saturation fit): 1
- ΔF (GKRP-P446L; [7]): 0.55
- Kd (GKRP-P446L; [7]): 2.45 µM
- H (GKRP-P446L; [8]): 2.68
- ΔF (GKRP-P446L; [8]): 0.42
- Kd (GKRP-P446L; [8]): 3.55 µM
- H (GKRP-P446L; [9]): 2.77
- ΔF (GKRP-P446L; [9]): 0.44
- Kd (GKRP-P446L; [9]): 2.97 µM
- H (GKRP-P446L; [10]): 2.45
- ΔF (GKRP-P446L; [10]): 0.42
- Kd (GKRP-P446L; [10]): 2.84 µM
- H (GKRP-P446L; [11]): 2.94
- ΔF (GKRP-P446L; [11]): 0.43
- Kd (GKRP-P446L; [11]): 3.38 µM
- H (GKRP-P446L; [12]): 1.86
- ΔF (GKRP-P446L; [12]): 0.44
- Kd (GKRP-P446L; [12]): 2.05 µM
- H (GKRP-P446L; GK titration, no further agent, simple saturation fit): 1
- ΔF (GKRP-P446L; [13]): 0.82
- Kd (GKRP-P446L; [13]): 5.23 µM
- maximal ΔTF value of GKRP-P446L (GKRP-P446L; range under all conditions tested): 0.41–0.44
- increase of the TF of GKRP-P446L (GKRP-P446L; saturating GK (5 μM), 0.3 μM GKRP): 44%
B1: GK-W99R/W167F/W257F: tryptophan residue-free, non-fluorescent recombinant human β-cell GK made for the present study (protein)
chain: MLDDRARMEAAKKEKVEQILAEFQLQEEDLKKVMRRMQKEMDRGLRLETHEEASVKMLPTYVRSTPEGSEVGDFLSLDLGGTNFRVMLVKVGEGEEGQRSVKTKHQMYSIPEDAMTGTAEMLFDYISECISDFLDKHQMKHKKLPLGFTFSFPVRHEDIDKGILLNFTKGFKASGAEGNNVVGLLRDAIKRRGDFEMDVVAMVNDTVATMISCYYEDHQCEVGMIVGTGCNACYMEEMQNVELVEGDEGRMCVNTEFGAFGDSGELDEFLLEYDRLVDESSANPGQQLYEKLIGGKYMGELVRLVLLRLVDENLLFHGEASEQLRTRGAFETRFVSQVESDTGDRKQIYNILSTLGLRPSTTDCDIVRRACESVSTRAAHMCSAGLAGVINRMRESRSEDVMRITVGVDGSVYKLHPSFKERFHASVRRLTPSCEITFIESEEGSGRGAALVSAVACKKACMLGQ
modifications: left off: GST, end not stated, cleaved
notes: tryptophan residue-free, non-fluorescent recombinant human β-cell GK made for the present study
